Measured values: the DeepSol protein solubility set

Assay: soluble on expression in E. coli; label from the status in PepcDB or PDB records

Sequence | soluble on expression in E. coli
MGSDKIHHHHHHFGKQSKPTPNFAKKSDAYSADDDRVPNLVDDDEEEIIGDEEDDVNQPGPSGSQSNPEPQDEEENAEQQSANSSQSSAAEEEDDEHVVPENEPVKPTEEFAKKSPKNTGGAKRRTARRGD | not soluble
MGSDKIHHHHHHGDWLNLNPSTSVTTPQAIRTLEEAQIALNGIYRIAASHSYYGDNYLYYADCRGEDVQARVSKGAGKRVSPYYEFNVTADDALNITRVWNQPYSVIHQANSLLERIESGAVVTDDAVALNCIKAEALALRGLALFDLTRLFAMPYTLNNGTSLGVPIEIKTTLPTHQPARNTVAECYQQVIDDMTGALKLSALSADKKNGYLNVWSVKALLSRVYLYMNDNEKALALAKEVMNNGGLYQLFTHDEYPTVWGKDFSSESLFEFYYTLSEPDGGTGGEGAPMVYADNVKDWNNLVLTKAFLDLLGEDPDDVRHSLNRLPEKPEEDILPEGSKGYPKYLNKYPGKTGDNPQDNDICIIRLSEVYLNAAEAAFKLGGAENLKFSLDCLNAIVSRANPVKSVKETELSLERILKERRKELVGEGHAFFDAMRNGLSVSRTGGWHLPSVAAAAVISPSDPRVALPIPQAEIDANPNMVQNPH | not soluble
MGSDKIHHHHHHGKKKPPPPKSASKMGPPPPAPAPPTAPEAAPAAPTPDAAAAAPAEGEKKDGEKKSEKKDGDKKEEEKKDEEKKDGDKKEDDKKDEKKDEDKKDEKKDADEKKDEEKKDDKKDEKKDEKKDEKKDEKKEKSKKSKKSSKSKKSKKSKREKKDEEKKEDDKKEDDKKDDKKEDEKKDDDKKDDEKNYFW | not soluble
MGSDKIHHHHHHGSSESAEYQQTNHYNTPKGFMNDIQTIFKGSDGYYHMYYLLNSNYKLANDGTEWYHVRTKDWEHFENLGVAIPKFVNGWSAVATGSIFQNSNQFFKDLPTSAIVAYFTSYTDTGQHQYVAYSLDNGSSYQPYNNGKPVMISQTKEQNARDPYIWYDSNSKRLMMYLAEGDKIGIYASSDGKNWAYQGATVLNQYTLGGKDLGLVECPNLKTFYDSATNTTKHVLFFGANGYQYGSTTGTYYMIGHLDTQGNFVPEQNAERLDQGSDYYGANFYQESDCVVKSIAWMGNWDYLQGQILDDQGQESKHLGSVSSARDITMVKRDDKYVLESYLKNNNSRTNTVSYQSNADTAKLADDGYHKTLLSVSRWHSQELSLKFQANAATLNGHIRLIFKQADAQVSLDYNTDNGYYEVKRTSSKIIGSQKVNYERSYVVDSHWNGQKELNIYLVADKSSLEFALPNGQTYSMVKLSTASDMDIVIETSGSNRLQADLANLET | not soluble
MGSDKIHHHHHHIEPCADYTTRELDLRNEIKGAEELEEIKYEISKSFPMDELRFPKYWSDLSNQDVLVSEFIEGKSLEEGIEEKSLSWDTLLRLFRIHGAYLFGIGTFHGDLHPGNCIIDNDGKFVFIDNGAICHAPSKVNLSLFQFFENLSSNDFDAAFDSLLGLSDSPLKSTNLDNYYKEMNKIYDGFQNQTVGEKSLTRIMMQTVQAAVEKAGADFGEEAFPIIRALMYLDGLVLRTHPDVKLIESMGPYLEEFRLGLDLENKIKNV | not soluble
MGSDKIHHHHHHKETGNMPEIKKQPIASAVPDFNADSAYAYVANQVAFGPRVPNTAAHKACGDYLASELKRFGAKVYQQEAILTAYDGTKLEARNIIGSFDPENSKRVLLFAHWDSRPYSDHDPDPSKHRTPLDGADDGGSGVGALLEIARQIGQKAPGIGIDIIFFDAEDYGTPEFVTDYTPDSWCLGTQFWAKNPHVPNYTAEYGILLDMVGGKNATFFKEQQSLRAAAPIVEMVWSAARDLGYGKYFINAAGGAITDDHQYVISGRNIPSIDIINYDPESKTGFASYWHTQKDNMENIDRETLKAAGQTVLEVIYNR | not soluble
MGSDKIHHHHHHKIKQTAGRDQLGTFAPKFAELNDDILFGEVWSRTEQLGLRDRSLVTITSLISQGITDSSLTFHLQSAKNNGITRTEIAEIITHIGFYAGWPKAWAAFRLAKEVWNEDISCKDKDEKTTFQREMIFPIGEPNTAYAQYFTGNSYLAPISREQASISNVTFEPRCRNNWHIHHATQGGGQMLIGIAGRGWYQEEGKAAVEILPGTVIHIPANVKHWHGAAANSWFAHLAFELSGENTSNEWLEPVTDEEYDKIQMLP | not soluble
MGSDKIHHHHHHKVEGNGNIITKEISVDNYSEIELGGNIEYSGNNFWGNRSNKKFPVFKYTHGRSASLKITIDENLFPLLSIKSNNGRLAIRIQDGTRIKPTQYVIEGSSKTLKYLKTSGPMDFEAQNAFSEDQLEIKISGSSDVKFPHNVKLRLGEFSVSGSGDLVFEDLDCKNLTSKVSGSGDITLKGKADEARYSVSGSGDIKAYDLSVNDLSCSVSGSGDARVYAKDNMNLSVSGSGDIRYKGPANVNKSKSGSGSIQGAN | not soluble
